# In the nanobody polyreactivity screen of Harvey et al. (2022):
# Assay: yeast display, Sf9 membrane polyspecificity reagent, FACS + sequencing; frameworks hold sequencing errors
# In short: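 Using colony PCR, genes from sorted yeast display clones were amplified, then sequenced on MiSeq at 2 × 250 and filtered by CDR length. The clones had been stained with 10% biotinylated, detergent-solubilized Sf9 membrane reagent for 1 hour at 4 °C and sorted by FACS into low and high (top ~1%) gates on anti-HA and streptavidin fluorescence. Polyreactivity labels come from the gate of origin.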
row,Sequence,polyreactivity (PSR sort gate)
1,QVQLVESGGGIVQAGGSLSLSCAASGSTFYSYDMVWYRPAPGKERELVAAISWEGGRPYYADSVKGRFTISRDNAKNNVYLQMNSLKPEDTAVYYCADAYPTYRHYYWGQGTQVSVSS,low polyreactivity
2,QVQLVESGGGLVQAGGSLRLSSAASGRTFHSYARGWYRQSPGKERELVAGMSWGGTRTTYADSVKGRFTLSRDNAKNTVYLQMNSLKPEDTADYYCNAVYYALGRSPPDYGYWGQGTQVTVSS,low polyreactivity
3,QVQLVESGGGLVQAGGSLRLSCAASGSIFYRNAMGWYRQAPGKERELVAAITSRGGRTYYADSVKGRFTISRDNAKNTVYLQMTSLKPEDTAVYYCAADYRYPAHSYGYWGQGTQVTVSS,high polyreactivity
4,QVQLVESGGGLVQAGGSLRLSCAASGSTFYVNAMGWYRQAPGKEREFVAAISWSGGSTYYADSVKGRFTISRDNAKNTVYLQMNSLKPEDTAVYYCAADRVRKDGVLFDYWGQGTQGTVSS,high polyreactivity
5,QVQIVESGGGLVQAGGSLSLSCAASGYNFYSYAMGWYRQAPGTKRELVAAITNSGGSTYYADSVKGRFTISRDNAKNTVYLQMNSLKPEDTAVYSCNASYWRAYSYKYDYWGQGTQVTVSS,high polyreactivity
6,QVQLVESSGGLVQAGGSLRLSCADSGIIFQNYEMGWYRQAPGKDRELVAAITGSGGSTYYADSVKGRFTISRDNAKNTVYLQMNSLKPEDTAVDYCNADWEYYGKSDYWGQGTQVTVAS,low polyreactivity
7,QVQLVESGGGLVQEGGSLRLSCAASGIIFLENAMGWYRQAPGKERELVAGISSGGNTNYADSVKARFTISRDNAKNTVYLHMNSLKPEDTAVYYCNARCHRAVPGDELGYWGQGTQLTVSS,low polyreactivity
8,QVQLQESGGGLMQAGGSQRLSCAASGSISYYSDMGWYRQAPGKEREFVAGIGYGTTTNYADSVKGRFTTSRDNAKNTVYLQMISMKPEDSAVYYCAAYQGNGYEFYYWGQGTQVTVRS,low polyreactivity
9,QVQLVESGGGLVQAGGSLRLSCAASGRIFAVYVMGWYRQAPGKERELVAAISQSGGRTYYADSVKGRFTISRDNAKNTVYLQMNSLKPEDTAVYYCNTVTSRATNFSGFGYWGQGTQVTVSS,high polyreactivity
10,QVQLVESGGGLVQAGGSLRLSCAASGFIFRYYAMGWYRQAPGKERELVAAISRSGGSTYYADSVKGRFTISRDNAKNTVYLQMNSLKPEDTAVYYCAALQSRSWYQFNYWGQGTQVTVSS,high polyreactivity
11,QVQLVESGGGLVQAGGSLRLSCAASGSTFPKNAMGWYRQAPGKERELVAAINTGGSTYYADSVKGRFTISLDNAKYTVYLQMNSLKPEDTAVYYCAARDNYHRDVGHPYDYWGQGTQVTVSS,low polyreactivity
12,QVQLVESGGGLVQAGGSLRLSCAASGGTFSFNAMGWSRQAPGKEREVVAAITSDDGTNDADSVKGRFTISRDNAKNTVYLQMNSLKPEDTAVDYCAAESRFEGWGQGTQVTVSS,low polyreactivity
13,QVHLVESGGGLVQAGGSLRLSCSASGSTFYRYAMGWYRQAPGKERELVAAINTGGSTNYADSVKGRFTISRDNAKNTVYLQMNSLKPEDTAVYYCAARFQYYRKYDYWGQGTQVTVSS,low polyreactivity
14,QVQLVESGGGLVQAGGSLRLSCAASGNIFLTYAMGWYRQAPGKERELVAAISRGGRTYYADSVKGRFTISRDNAKNTVYLQMNRLKPEDTAVYYCNVQPDRISRYDYWGQGTQVTVSS,high polyreactivity
15,QVQLVESGGGLVQAGGSLRLSCAASGSIFPPYVMGWYRPAPGKERELVAAINYIGDSTYADSVKGRFTISRDNAKNTVYLQINSLKPEDTAVYYCAAELWSGGVYSGFEEYWGQGTQVTVSS,high polyreactivity
16,QVQLVESGGGLVQAGGSLRLSCAASGSIFGYNPMGWYIQAPGKERELVAAISRSGGRTYYADSVKGRFTISRDNAKNTVYLQMNSLKPEDTAVYDCAAPVWRYYRGKTFDYWGQGTQVTVSS,high polyreactivity
17,QVQLVESGGGLVQAGGSLRLSCAASGSTFNFYAMGWARQAPGKERELVAAIRQSSGRTYYADSVKGRFTISRDNAKNTVYLQMNSLKPEDTAVYYCNARVPRYNGGSTMEYWGQGTQVTVSS,high polyreactivity
18,QVQLVESGGGLVQAGGSLRLSCAASGRTFELNAMGWYRQAPGKERELVAAISWSGGSTYYADSVKGRFTISRDNAKNTVYLQMNSLKPEDTAVYYCAAQYQQGPFVKYYYWGQGTQVTVSS,high polyreactivity
19,QVQLVESGGGLVQAGGSLRLSCASSGYTFRYYAMGWYRQAPGKERELVAAITRRGATTYYADSVKGRFTISRDNAKNTVYLQMNRLQPEDTADYYCNAVYQYGSFVTAAGNYWGQGTQVTVSS,high polyreactivity
20,QVQLVESGGGLVQAGGSLRLSCAASGRMFGAYGMGWYRQAPGKERELVAAISNGGRTSYADSVKGRFTISRDNAKNTVYLQMNSLKPEDTAVYYCAAVQLAYTYYWYNDWGQGTQVTVSS,high polyreactivity
21,QVQLVESGGGLVQAGGSLRLSCAASGSIFRNNAMGWYRQAPGKERELVASISSSGDSTYADSVKGRFTISRDNAKNTVYLQMNSLKPEDTAVYYCARDYLSPYAVDYWGQGTQVTVSS,low polyreactivity
22,QDQHVESGGGLVQAGGSLRLSCAASGGNYAGYAMGWYRQAAGKARELVAAISWRGTSTYYADSVKGRFTISRDNAKNTVYLELNSLKPEDTAVYYCAAEAASWWGYGYWGQGTQVTVSS,high polyreactivity

row,Sequence,polyreactivity (PSR sort gate)
1,QVQLVESGGGLVQAGGSLRLICAASGSTFYEYAMGWYRQAPGKERELVAAISSNGARTYYADSVKVRFTISRDNAKNTVYLQMISLKPEDTAVYYCALVYRYAHTKYDYWGQGTQVTVSS,high polyreactivity
2,QVQLVESGGGLVQAGGSLRLSCAASGFTFWRYTMGWYRQAPGKERELVAAISGGTTTYYADSVKGRFTISRDNAKNTVYLQMNSLKPEDTAVYYCAAYSQRARTYDYWGHGTQVTVSS,high polyreactivity
3,QVQLVESGGGLVQAGGSLRLSCAASGFTFYPYTMGWYRQAPGKEREFVAAISWNCGSTYYADSVKGRFTISCDNAKNTVYLQMNSLKPEDTAVYYCAKRSYRSSARELDYWGQGTQVTVSS,low polyreactivity
4,QVQLVESGGGLVQAGGSLRLSCAASGRTFQDNVMGWYRQAPGKETELVAAINTSSGSTYYADSVKGRFTISRDNAKNTVYLQMNSLKPEDTAVYYCFSYDYDYWGQGTQVTVSS,low polyreactivity
5,QVQLVESGGGLVQAGGSLRLSCAAYGSIFGSYCMGWYRQAPGKERELVAAIRVSGGSTYYADSVKGRFTISRDNAKNTVYLQMNSLKPEDTAVYYCAARARSTPRKYYYTRGYWGQGSQVTVSS,high polyreactivity
6,QVQLVESGVRLVQAGGSHRLSCAASARTFYPNAMGWYRQAPGKEREFVARISDSGGSSYYADSVKGRFTISRDNAKNTVYLQMNSLKPEDTAVYYCAADYVDPRVNEYDYWGQGTQVTVST,low polyreactivity
7,QVQLVESGGGLVQAGGSLRLSCAASGSTLYRNAMGWYRQAPGKEREFVAAISWSGGSTYYADSVKGRFTISRDNAKNTVYLQMNSLKPEDTAVYYCNARGPTVYETHNYWGQGTQVTVSS,low polyreactivity
8,QVQLEESGGGLVQAGGSLRLSCAASGSTYGNSAMAGYRQAPGKERELVAAINGGPNTYYADSVKGRFTISRDNAKKTVYLQMNSLKPEDTAVYYCAAEAQAIGFHWGVDGDSWGQGTQVTVSS,low polyreactivity
9,QVQLVESGGGLFQAGGSLRLSCAASGSIFAGYAMGWSRQAPGNERELVATITSSSRTNYADSVKGRFTISRDNAKNTVYLQMNSLKPEDTAVYYCAATSFSVRFTRYYYWGQGTQVTVSS,high polyreactivity
10,QVQLVESGGGLVQAGGSLRLSCAASGSIFLYYAMGWYRQAPGKERELVATIRGSGSSTYYADSVKGRFTISRDNAKNTVYLQMNSLKPEDTAVYYCAAKGYRWFRHGGYYFKFDYWGQGTQVTVSS,high polyreactivity
11,QVQLVESGGGVVQAGGSLLLSCAASGRIFWYYAMGWYRQAHGKERELVATITRGGNTYFADSVKGRFTISRDNAKNTVYLQMNSLKPEDNAVYYCAASQRYSVIYYGFSEYDYWGQGTQVTVSS,high polyreactivity
12,QVQLVESGGGLDQAGGSLRLSCAASGFTFPGNAMGWYRQSPGKEREFVAGISRSGDSTYYADSVKGRFTISRDNAKNTVYLQMNSLKPEDTAVYYCAARNPYRYFYYYEYWGQGTQVTVSS,low polyreactivity
13,QVQLVESGGGLVQAGGSLRLICAASVSTFVRNAMGLYRQAPGKERELVAAISRSGGRTYYADSVKGRFTISRDNAKNTVYLQMNSLKPEDTSVYYCAADGKSVYDYWGQGTQVTVSS,high polyreactivity
14,QVQLVESWGGLVQAGGILRLSCASYGFIFPIYAMGWYIQAPGKESELVALIRSGGSTYYADSVKGRFTISRDNAKNTVYLQMHSRKPEDTAVYYCKAKRYGMWGAAGRVGYDYWGQGTQVTVSS,high polyreactivity
15,QVQLVESGGGLVQAGGSLRLSCAASGFTFTEYAMGWYRQAPGKERELVADITWSGGITYYADSVKGRFTISRDNAKNTVYLQMNSLKPEDTAVYYCNADYIYSYFYIRYDYWGQGTQVTVSS,low polyreactivity
16,QVQLVESGGGLVHAGGSLRLSCAASGRTLKYYAMGWYRQAPGKERELVAAISGGDSTYYADSVKGRFTISRDNAKNTVYLQMNSLKPEDTAVYYCNARRFIWWYPYLRDYWGQGTQVTVSS,high polyreactivity
17,QVQLVESGGGLVQAGGSLRLSCAASGSTFGDYAMGWYRQGPGKERELVASINQNGGDTYYADSVKGRFTISRDNAKNTVYLQMNSLKPEDTAVYYCAAEAGYYFQTVAIDMGYWGQGTQVTVSS,low polyreactivity
18,QVQLVESGGGLVQAGGSLRLSCAASGFIFRRYAMVWYRQAPGKERELVAAISTGGSTYYADSVKGRFTISRDNAKNTVYLQMNSLKPDDTAVFYCNVKRRTYGQYRMYYWGQGTQVTVSS,low polyreactivity
19,QVQLVESGGGLVQAGGSLRLSCAASGRTFDVNAMGWYRQAPGKERELVAAITWDGGSTYYADSVKGRFTISRDNAKNTVYLQMNSLKPEDTAVYYCAADFIQGAWWYVTYRYTYEYWGQGTQVTVSS,low polyreactivity
20,QVQLVESGGGLVQAGGSLRLSCAASGLTFYYYVMGWYRQAPGKERELVAAISSSGGNTYYADSVKGRFTISRDNAKNTVYLQMNSLKPEDTAVYYCAAGQKRTLDNYWGQGTQVTVSS,high polyreactivity
21,QVQLVESGGGLVQAGGSLRLSCAASGYIFALNAMGWYRPAPGKEWELVAAINDSGDSTYYADSVKGRFTISRDNAKNTVYLQMNSLKPEDTAVYYCAAGFSYEWCYPTFDYWGQGTQVTVSS,low polyreactivity
